How the values were obtained:
[1] = biological target: human CD40 protein expressed on cells (human) (UniProt P25942); assay: flow cytometry on CHO-S cells transiently expressing human CD40; AF647 anti-human IgG (H+L) secondary; GeoMean RL1-H
[2] = biological target: cynomolgus CD40 protein expressed on CHO-S cells (cynomolgus) (UniProt G7PG38); assay: flow cytometry on CHO-S cells transiently expressing cynomolgus CD40; AF647 anti-human IgG (H+L) secondary; GeoMean RL1-H

Chain of human CD40 protein expressed on cells (human) (P25942 21-277 limits assumed): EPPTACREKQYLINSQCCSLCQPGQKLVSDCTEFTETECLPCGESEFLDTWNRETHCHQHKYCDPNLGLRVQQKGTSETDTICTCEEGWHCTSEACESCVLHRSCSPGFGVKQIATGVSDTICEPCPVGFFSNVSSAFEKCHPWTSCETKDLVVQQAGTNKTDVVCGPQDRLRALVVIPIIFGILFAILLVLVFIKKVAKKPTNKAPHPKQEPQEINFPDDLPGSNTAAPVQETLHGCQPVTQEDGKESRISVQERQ

selicrelumab analogue (antibody)
EC50 (read off the curve) [1]: 0.07 µg/mL | EC50 (read off the curve) [2]: 0.08 µg/mL

— patent US20210214454A1
